The source of these data is IntAct's records for PubMed 21139563.

B1: Importin-13 (Homo sapiens), O94829 (parent)
chain: MERREEQPGAAGAGAAPALDFTVENVEKALHQLYYDPNIENKNLAQKWLMQAQVSPQAWHFSWQLLQPDKVPEIQYFGASALHIKISRYWSDIPTDQYESLKAQLFTQITRFASGSKIVLTRLCVALASLALSMMPDAWPCAVADMVRLFQAEDSPVDGQGRCLALLELLTVLPEEFQTSRLPQYRKGLVRTSLAVECGAVFPLLEQLLQQPSSPSCVRQKVLKCFSSWVQLEVPLQDCEALIQAAFAALQDSELFDSSVEAIVNAISQPDAQRYVNTLLKLIPLVLGLQEQLRQAVQNGDMETSHGICRIAVALGENHSRALLDQVEHWQSFLALVNMIMFCTGIPGHYPVNETTSSLTLTFWYTLQDDILSFEAEKQAVYQQVYRPVYFQLVDVLLHKAQFPSDEEYGFWSSDEKEQFRIYRVDISDTLMYVYEMLGAELLSNLYDKLGRLLTSSEEPYSWQHTEALLYGFQSIAETIDVNYSDVVPGLIGLIPRISISNVQLADTVMFTIGALSEWLADHPVMINSVLPLVLHALGNPELSVSSVSTLKKICRECKYDLPPYAANIVAVSQDVLMKQIHKTSQCMWLMQALGFLLSALQVEEILKNLHSLISPYIQQLEKLAEEIPNPSNKLAIVHILGLLSNLFTTLDISHHEDDHEGPELRKLPVPQGPNPVVVVLQQVFQLIQKVLSKWLNDAQVVEAVCAIFEKSVKTLLDDFAPMVPQLCEMLGRMYSTIPQASALDLTRQLVHIFAHEPAHFPPIEALFLLVTSVTLTLFQQGPRDHPDIVDSFMQLLAQALKRKPDLFLCERLDVKAVFQCAVLALKFPEAPTVKASCGFFTELLPRCGEVESVGKVVQEDGRMLLIAVLEAIGGQASRSLMDCFADILFALNKHCFSLLSMWIKEALQPPGFPSARLSPEQKDTFSQQILRERVNKRRVKEMVKEFTLLCRGLHGTDYTADY

The assay covers variants of B1. Particulars: with mgn_human MAGOH.
As to K802E, the “effect of a mutation on the interaction” value is “disrupting interaction”.
Turning to R803E, the “effect of a mutation on the interaction” value is “disrupting interaction”.
